# Literature values in patent publication US20070276019A1, “Haloalkyl Containing Compounds as Cysteine Protease Inhibitors” (Axys Pharmaceuticals, Inc., priority 2003, published 2007).
# Conditions: clinical trials
substance,measurement,value
OKT3: murine monoclonal antibody directed towards CD-3 domain of activated T-cells,patients administered OKT3 that produce antibodies versus the therapy,20-40%
